{
  "source": "patent US20170184603A1",
  "about": "(MORPHOTEK, published 2017)",
  "binders": {"B1": {"name": "anti-FR-α antibody comprising a heavy chain comprising an amino acid sequence of SEQ ID NO:5 and a light chain comprising an amino acid sequence of SEQ ID NO:2 (antibody, human IgG1, kappa, V domains shown)", "VH": "EVQLVESGGGVVQPGRSLRLSCSASGFTFSGYGLSWVRQAPGKGLEWVAMISSGGSYTYYADSVKGRFAISRDNAKNTLFLQMDSLRPEDTGVYFCARHGDDPAWFAYWGQGTPVTVSS", "VL": "DIQLTQSPSSLSASVGDRVTITCSVSSSISSNNLHWYQQKPGKAPKPWIYGTSNLASGVPSRFSGSGSGTDYTFTISSLQPEDIATYYCQQWSSYPYMYTFGQGTKVEIKR", "notes": "also called antibody of the invention; humanized anti-FR-α antibody"}},
  "target": "T1, purified FR-α (UniProt P15328 25-234, limits assumed)",
  "T1 construct": "also called folate receptor-alpha; alpha-folate receptor",
  "T1 sequence (P15328 25-234 limits assumed)": "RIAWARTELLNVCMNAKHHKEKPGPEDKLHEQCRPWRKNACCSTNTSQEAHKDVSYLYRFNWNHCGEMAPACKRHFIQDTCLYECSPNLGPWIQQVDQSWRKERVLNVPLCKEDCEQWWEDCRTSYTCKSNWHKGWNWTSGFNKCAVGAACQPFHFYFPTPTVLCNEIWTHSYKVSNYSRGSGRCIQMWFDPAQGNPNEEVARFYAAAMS",
  "experiment": "surface plasmon resonance spectroscopy",
  "data": [
    {"binder": "B1", "values": [
      {"measurement": "Kd", "value": 2.23, "unit": "nM"},
      {"measurement": "koff", "value": "~0.000502", "unit": "s⁻¹"},
      {"measurement": "kon", "value": "~225000", "unit": "M⁻¹ s⁻¹"}
    ]}
  ]
}
